Laboratory results taken from patent US6989362.

System: phospho-Thr75 DARPP-32

## purified catalytic subunit of cAMP-dependent protein kinase (PKA)
  phosphorylation of Thr34 DARPP-32 by PKA in vitro: The ability of PKA to phosphorylate Thr34 DARPP-32 in vitro was virtually abolished by prior phosphorylation at Thr75
